Consider five molecules from PMC5785977, “A dual role for the N-terminal domain of the IL-3 receptor in cell signalling” (Nature Communications, 2018).

Read-outs that look alike come from different tables or passages of the source.

For orientation: Kd means a measure of binding affinity in units of concentration.

The target in assay [1] is IL3Rα ECD (Homo sapiens) (UniProt P26951). Conditions: cited from earlier work.
The target in the next assay is IL3Rα:βc (Homo sapiens) (UniProt P26951). Conditions: cited from earlier work.
The target in assay [2] is IL3Rα ECD (Homo sapiens) (UniProt P26951). The assay is described as follows: SPR. The settings on record: cited from earlier work.
Assay [3] has the same target. The assay is described as follows: SPR. The settings on record: cited from earlier work. This is another data set of the same source.
Assay [4] has the same target. The assay is described as follows: SPR. Conditions: cited from earlier work. The source holds these as a separate data set.
The target is the same in assay [5]. The assay is described as follows: SPR. Conditions: cited from earlier work. This is another data set of the same source.
Assay [6] has the same target. The assay is described as follows: SPR. The settings on record: cited from earlier work. This is another data set of the same source.
The target of a further assay is GMRα:βc (Homo sapiens) (UniProt P15509). Conditions: cited from earlier work.
The next assay addresses IL5Rα:βc (Homo sapiens) (UniProt Q01344). The settings on record: cited from earlier work.
The target in assay [7] is IL3Rα + βc co-expressed on COS cells (human) (UniProt P26951).
The target in assay [8] is IL3Rα C76A,C195A + βc co-expressed on COS cells (human) (UniProt P26951).
The target in assay [9] is IL3Rα D197L + βc co-expressed on COS cells (human) (UniProt P26951).
Assay [10] addresses IL3Rα SP2 + βc co-expressed on COS cells (human) (UniProt P32927).
Assay [11] has as its target IL3Rα + βc co-expressed on COS cells (human) (UniProt P26951). The assay is described as follows: radioligand binding; saturation binding of radioiodinated (125I) cytokine to transfected COS cells; dissociation constants by EBDA and LIGAND.
Assay [12] addresses IL3Rα C76A,C195A + βc co-expressed on COS cells (human) (UniProt P26951). Described as above.
Assay [13] deals with IL3Rα D197L + βc co-expressed on COS cells (human) (UniProt P26951). The assay is described as above.
For assay [14], the target named is IL3Rα SP2 + βc co-expressed on COS cells (human) (UniProt P32927). The description is as above.
The target in assay [15] is full-length IL3Rα expressed alone on COS cells (human) (UniProt P26951). The assay is described as above.
Assay [16] has as its target IL-3 receptor on TF-1Hi cells (overexpressed IL3Rα) (human | human (endogenous in TF-1)) (UniProt P26951). The assay is described as follows: radioligand binding; saturation binding of radioiodinated (125I) cytokine to TF-1Hi cells (overexpressed IL3Rα); dissociation constants by EBDA and LIGAND.
In assay [17] the target is T1, endogenous IL-3 receptor on TF-1 cells (human (endogenous in TF-1), UniProt P26951 19-378; P32927 17-897).
T1 construct: IL-3 receptor α-subunit, endogenous in the human TF-1 erythroleukaemic cell line; beta common (βc) receptor subunit, endogenous in the human TF-1 cell line; the discussion notes that TF-1 cells also express transcripts of the IL3Rα SP2 splice variant; also called TF-1 Endogenous; source: endogenous, on TF-1 cells
The assay is described as follows: radioligand binding; saturation binding of radioiodinated (125I) cytokine to TF-1 cells (endogenous receptor); dissociation constants by EBDA and LIGAND. The settings on record: one partner purified.

The target of assay [18] is T2, IL3Rα + βc co-expressed on CTLL-2 cells (human, UniProt P26951 19-378; P32927 17-897, N144 and R145 to K144).
T2 construct: IL-3 receptor α-subunit, human, full-length; the cDNA of the site 1 functional studies in CTLL-2 encodes a splice variant that changes N144 and R145 to K144; beta common (βc) receptor subunit, human, wild-type; also called CTLL-2 IL3Rα + βc; source: CTLL-2 cells, retrovirally transduced, on cells
T2 sequence (looked up) 1: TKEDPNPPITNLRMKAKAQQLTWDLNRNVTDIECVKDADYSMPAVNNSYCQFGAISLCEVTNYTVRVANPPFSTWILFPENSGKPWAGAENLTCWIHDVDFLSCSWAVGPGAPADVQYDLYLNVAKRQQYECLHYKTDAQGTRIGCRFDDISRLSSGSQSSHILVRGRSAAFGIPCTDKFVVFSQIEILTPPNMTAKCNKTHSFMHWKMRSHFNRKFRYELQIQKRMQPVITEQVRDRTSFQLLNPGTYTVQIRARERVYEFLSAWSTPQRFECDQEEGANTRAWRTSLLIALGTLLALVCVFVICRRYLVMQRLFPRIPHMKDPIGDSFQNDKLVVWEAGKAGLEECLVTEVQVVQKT
T2 sequence (looked up) 2: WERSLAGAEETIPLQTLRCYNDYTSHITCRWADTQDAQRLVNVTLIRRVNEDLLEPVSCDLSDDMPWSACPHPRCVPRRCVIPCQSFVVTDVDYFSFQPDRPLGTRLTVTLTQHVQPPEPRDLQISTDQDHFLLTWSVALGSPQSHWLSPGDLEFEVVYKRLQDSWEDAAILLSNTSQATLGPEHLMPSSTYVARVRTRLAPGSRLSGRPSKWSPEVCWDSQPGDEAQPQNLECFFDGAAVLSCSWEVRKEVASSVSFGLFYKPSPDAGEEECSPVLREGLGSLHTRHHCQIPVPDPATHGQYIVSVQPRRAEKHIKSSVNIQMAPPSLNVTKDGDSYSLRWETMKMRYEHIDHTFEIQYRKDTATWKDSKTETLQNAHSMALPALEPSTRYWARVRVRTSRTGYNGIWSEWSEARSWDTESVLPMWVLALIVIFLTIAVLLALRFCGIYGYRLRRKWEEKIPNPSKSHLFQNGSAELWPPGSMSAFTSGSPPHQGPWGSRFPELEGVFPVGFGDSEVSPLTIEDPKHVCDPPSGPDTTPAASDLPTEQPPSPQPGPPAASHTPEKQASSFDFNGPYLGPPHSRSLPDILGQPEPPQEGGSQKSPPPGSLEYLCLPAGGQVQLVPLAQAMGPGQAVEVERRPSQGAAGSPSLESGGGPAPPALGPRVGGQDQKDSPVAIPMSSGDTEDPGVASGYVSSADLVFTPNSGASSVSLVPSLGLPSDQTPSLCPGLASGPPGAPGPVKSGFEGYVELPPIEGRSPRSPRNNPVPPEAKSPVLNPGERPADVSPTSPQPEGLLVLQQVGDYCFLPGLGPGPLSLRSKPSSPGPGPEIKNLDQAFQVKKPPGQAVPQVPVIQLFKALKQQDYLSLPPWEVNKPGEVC
The assay is described as follows: radioligand binding; saturation binding of radioiodinated (125I) cytokine to the CTLL-2 cell line expressing IL3Rα and βc; dissociation constants by EBDA and LIGAND. The settings on record: one partner purified.

IL5Rα:βc (Homo sapiens), sequence (Q01344 21-342): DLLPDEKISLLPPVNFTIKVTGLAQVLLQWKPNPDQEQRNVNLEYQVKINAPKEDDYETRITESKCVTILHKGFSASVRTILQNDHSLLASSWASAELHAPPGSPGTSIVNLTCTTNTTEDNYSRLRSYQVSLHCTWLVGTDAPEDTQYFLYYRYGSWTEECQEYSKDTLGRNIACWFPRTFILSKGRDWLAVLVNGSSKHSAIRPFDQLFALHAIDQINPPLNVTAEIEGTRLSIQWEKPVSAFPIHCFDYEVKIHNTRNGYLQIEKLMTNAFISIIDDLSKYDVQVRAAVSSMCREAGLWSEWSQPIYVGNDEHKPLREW
GMRα:βc (Homo sapiens), sequence (P15509 23-320): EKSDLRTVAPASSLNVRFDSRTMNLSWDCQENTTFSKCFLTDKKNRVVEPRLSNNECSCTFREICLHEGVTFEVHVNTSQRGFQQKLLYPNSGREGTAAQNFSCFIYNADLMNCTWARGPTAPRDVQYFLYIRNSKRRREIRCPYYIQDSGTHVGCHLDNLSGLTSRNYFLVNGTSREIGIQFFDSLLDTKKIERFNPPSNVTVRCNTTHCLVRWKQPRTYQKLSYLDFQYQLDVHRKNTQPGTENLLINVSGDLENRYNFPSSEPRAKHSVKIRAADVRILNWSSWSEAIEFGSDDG

As to IL-3 (from UniProt P08700), the Kd in the assay with IL3Rα ECD (Homo sapiens) [1] is 510 nM; with IL3Rα:βc (Homo sapiens), 0.2 nM; in the assay with IL3Rα ECD (Homo sapiens) [2], greater than 5000 nM; in the assay with IL3Rα ECD (Homo sapiens) [3] it was greater than 5000 nM; in the assay with IL3Rα ECD (Homo sapiens) [4] it was 220 nM; with IL3Rα ECD (Homo sapiens) [5], greater than 5000 nM. In the assay with IL3Rα ECD (Homo sapiens) [6], the Kd was greater than 5000 nM.

Take GM-CSF (from UniProt P04141): the Kd in the assay with GMRα:βc (Homo sapiens) is 0.2 nM.

On to IL-5 (from UniProt P05113), for which the Kd in the assay with IL5Rα:βc (Homo sapiens) is 0.2 nM.

B1: wild-type human IL-3, residues W13 to Q125 of the mature peptide with a W13Y mutation and a GAMGS N-terminal tail (ligand)
chain: GAMGSYVNCSNMIDEIITHLKQPPLPLLDFNNLNGEDQDILMENNLRRPNLEAFNRAVKSLQNASAIESILKNLLPCLPLATAAPTRHPIHIKDGDWNEFRRKLTFYLKTLENAQAQQ
modifications: radioiodinated with 125I in the cell-surface binding assays (residue not stated)
notes: N-terminal tail arising from the expression plasmid, left after TEV cleavage; interleukin-3, human, residues W13 to Q125 of the mature peptide; numbers count on: the mature protein; also called wild-type IL-3; interleukin-3; source: E. coli BL21 CodonPlus (DE3)-RIPL, purified (HisTrap, TEV digest, SEC, reversed-phase); not shown: Nus, N-terminal, cleaved; 6xHis, N-terminal, cleaved
B1: in assay [7], the proliferation of FDH cells co-expressing βc and wild-type IL3Rα, ED50 of the IL-3 dose–response was 0.29 ng/mL. The proliferation of FDH cells co-expressing βc and IL3Rα C76A,C195A, ED50 of the IL-3 dose–response in [8] came out at 12.2 ng/mL. In assay [9], the proliferation of FDH cells co-expressing βc and IL3Rα D197L, ED50 of the IL-3 dose–response was 1.71 ng/mL. In addition, the proliferation of FDH cells co-expressing βc and IL3Rα SP2, ED50 of the IL-3 dose–response in [10] was 6.94 ng/mL. In addition, the dissociation constant (Kd) in [11] stood at 0.48 nM; in [12], 1.1 nM; in assay [13], 4.37 nM; in assay [14] it was 7.61 nM; in assay [15], 141 nM; in [16], 0.14 nM. For the same molecule, the results for the Kd in assay [17] and in assay [18] were 2.06 nM and 0.34 nM, respectively.

B2: human IL-3 K116W, residues W13 to Q125 of the mature peptide with a W13Y mutation and a GAMGS N-terminal tail (ligand)
chain: GAMGSYVNCSNMIDEIITHLKQPPLPLLDFNNLNGEDQDILMENNLRRPNLEAFNRAVKSLQNASAIESILKNLLPCLPLATAAPTRHPIHIKDGDWNEFRRKLTFYLWTLENAQAQQ
modifications: radioiodinated with 125I in the cell-surface binding assays (residue not stated)
notes: N-terminal tail arising from the expression plasmid, left after TEV cleavage; interleukin-3, human, residues W13 to Q125 of the mature peptide; numbers count on: the mature protein; also called IL-3 K116W superkine; IL-3 superkine; source: E. coli BL21 CodonPlus (DE3)-RIPL, purified (HisTrap, TEV digest, SEC, reversed-phase); not shown: Nus, N-terminal, cleaved; 6xHis, N-terminal, cleaved
Regarding B2, in [7], the proliferation of FDH cells co-expressing βc and wild-type IL3Rα, ED50 of the IL-3 K116W dose–response turned out to be 0.37 ng/mL. In addition, the proliferation of FDH cells co-expressing βc and IL3Rα C76A,C195A, ED50 of the IL-3 K116W dose–response in [8] is 2.51 ng/mL. For the same molecule, in assay [9], the proliferation of FDH cells co-expressing βc and IL3Rα D197L, ED50 of the IL-3 K116W dose–response worked out at 0.6 ng/mL. Also, the proliferation of FDH cells co-expressing βc and IL3Rα SP2, ED50 of the IL-3 K116W dose–response in [10] turned out to be 2.19 ng/mL. Besides, the Kd worked out at 0.43 nM in assay [11]; 0.94 nM in assay [12]; 1.6 nM in [13]; 2.98 nM in assay [14]; 17.8 nM in [15]; 0.065 nM in assay [16]. Besides, the Kd in assay [17] came to 0.35 nM; in [18] it was 0.14 nM.
